Measurements reported in US20160251440A1.
One block for each binder: values may come before it.

Assays:
[1] = target: human CXCR4 (on cells, viral lipoparticles or membrane extracts) (human) (UniProt P61073); experiment: cell-based or functional assay
[2] = target: human CXCR4 (on cells, viral lipoparticles or membrane extracts) (human) (UniProt P61073); experiment: FACS displacement of 30 nM biotin-SDF-1, Caki-CXCR4 cells
[3] = target: human CXCR4 (on cells, viral lipoparticles or membrane extracts) (human) (UniProt P61073); experiment: FACS, Caki-CXCR4 cells
[4] = target: human CXCR4 (on cells, viral lipoparticles or membrane extracts) (human) (UniProt P61073); experiment: [125I]-SDF-1 displacement, Hek-CXCR4 membrane extracts
[5] = target: human CXCR4 (on cells, viral lipoparticles or membrane extracts) (human) (UniProt P61073); experiment: ELISA on coated CXCR4 viral lipoparticles (upper right panel)
[6] = target: recombinant IL-3Rα ectodomain (human) (UniProt P26951); experiment: ELISA on recombinant IL-3Ra ectodomain (panel 'IL-3Ra ELISA', lower left)
Sequence of recombinant IL-3Rα ectodomain (human) (P26951 19-305): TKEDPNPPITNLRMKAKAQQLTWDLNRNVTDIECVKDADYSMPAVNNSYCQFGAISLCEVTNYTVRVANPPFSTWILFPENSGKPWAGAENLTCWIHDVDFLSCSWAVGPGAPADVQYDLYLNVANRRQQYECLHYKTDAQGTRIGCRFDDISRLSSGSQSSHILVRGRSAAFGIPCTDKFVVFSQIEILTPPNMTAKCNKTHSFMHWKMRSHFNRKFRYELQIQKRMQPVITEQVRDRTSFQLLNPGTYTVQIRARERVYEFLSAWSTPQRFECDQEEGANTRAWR

[7] = target: human IL-23R, cell-expressed (human) (UniProt Q5VWK5); experiment: cell-based or functional assay
Sequence of human IL-23R, cell-expressed (human) (Q5VWK5 24-629): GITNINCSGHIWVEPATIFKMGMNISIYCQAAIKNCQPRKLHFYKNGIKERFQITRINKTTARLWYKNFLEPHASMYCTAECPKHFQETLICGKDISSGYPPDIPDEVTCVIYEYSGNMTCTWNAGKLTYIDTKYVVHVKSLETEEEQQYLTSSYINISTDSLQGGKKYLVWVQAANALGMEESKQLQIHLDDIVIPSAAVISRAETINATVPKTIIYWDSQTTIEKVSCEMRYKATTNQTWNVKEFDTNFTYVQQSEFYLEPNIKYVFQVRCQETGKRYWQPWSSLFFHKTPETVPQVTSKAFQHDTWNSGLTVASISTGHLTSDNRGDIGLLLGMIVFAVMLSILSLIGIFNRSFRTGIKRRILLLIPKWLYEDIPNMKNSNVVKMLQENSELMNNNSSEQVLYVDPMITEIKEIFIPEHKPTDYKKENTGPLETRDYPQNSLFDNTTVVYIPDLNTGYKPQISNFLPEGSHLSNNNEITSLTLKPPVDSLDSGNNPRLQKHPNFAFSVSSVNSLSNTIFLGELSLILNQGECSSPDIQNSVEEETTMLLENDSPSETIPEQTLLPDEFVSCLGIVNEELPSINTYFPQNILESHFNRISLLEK

Sequence of human CXCR4 (on cells, viral lipoparticles or membrane extracts) (human) (P61073 whole entry, the tested form may be a part): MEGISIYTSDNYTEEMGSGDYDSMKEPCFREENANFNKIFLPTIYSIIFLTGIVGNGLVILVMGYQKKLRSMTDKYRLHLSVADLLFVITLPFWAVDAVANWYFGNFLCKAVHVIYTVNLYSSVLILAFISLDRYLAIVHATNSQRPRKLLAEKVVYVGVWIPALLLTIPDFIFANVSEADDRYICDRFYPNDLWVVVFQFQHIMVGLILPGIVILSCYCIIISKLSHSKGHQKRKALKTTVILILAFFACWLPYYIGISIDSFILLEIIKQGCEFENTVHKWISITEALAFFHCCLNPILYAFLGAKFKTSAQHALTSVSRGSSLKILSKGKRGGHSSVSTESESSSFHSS

IC50, SDF-1 chemotaxis, Jurkat [1]: 7.6 nM | IC50 [2]: 2.1 nM | EC50 [3]: 3.4 nM | Ki [4]: 5.4 nM
B1: 238D4 (VHH, from a related filing)
VHH: EVQLMESGGGLVQAGGSLRLSCAASGRTFNNYAMGWFRRAPGKEREFVAAITRSGVRSGVSAIYGDSVKDRFTISRDNAKNTLYLQMNSLKPEDTAVYTCAASAIGSGALRRFEYDYSGQGTQVTVSS

Fold inc. vs CXCR4#1, Jurkat E6-1 [1]: 0.87 fold | Fold inc. vs CXCR4#1, MOLM-13 [1]: 2.39 fold | IC50, CXCL-12 chemotaxis, Jurkat E6-1 [1]: 12 nM | IC50, CXCL-12 chemotaxis, MOLM-13 [1]: 3.6 nM | EC50 (read off the curve) [5]: 7 nM | EC50 (read off the curve) [6]: 1 nM
B2: 14D09-35GS-55A01 (bispecific antibody)
chain: EVQLVESGGGLVQAGGSLRLSCVASGISSSKRNMGWYRQAPGKQRESVATISSGGNKDYTDAVKDRFTISRDTTKNTVYLQMNSLKPEDTAVYYCKIEAGTGWATRRGYTYWGQGTLVTVSSGGGGSGGGGSGGGGSGGGGSGGGGSGGGGSGGGGSEVQLVESGGGSVQAGGSLRLSCTTSGRALNMYVMGWFRQAPGNEREFVAATSSSGGSTSYPDSVKGRFTISRDNAKNTVYLQMNSLKPEDTAAYRCAASPYVSTPTMNILEEYRYWGQGTLVTVSS

IC50, IL-17 release, PBMC D840 [7]: 58.9 nM | fold ctrl, IL-17 release [7]: 1.7 fold
B3: IL23R#19-35GS-CD4#8 (bispecific antibody)
chain: EVQLVESGGGLVQPGGSLTLSCVASGRTFSTDVMGWFRQAPGKEREFVAAHRTSGISTVYAASVKGRFTISRDNAKNTVYLGMKSLKPEDTAVYVCAAGSDASGGYDYWGQGTLVTVSSGGGGSGGGGSGGGGSGGGGSGGGGSGGGGSGGGGSEVQLVESGGGSVQPGGSLTLSCGTSGRTFNVMGWFRQAPGKEREFVAAVRWSSTGIYYTQYADSVKSRFTISRDNAKNTVYLEMNSLKPEDTAVYYCAADTYNSNPARWDGYDFRGQGTLVTVSS
